What was measured:
Experiment in all cases: Esterase substrate specificity, fluorogenic SAR library kinetics
Format in all cases: biochemical, Staphylococcus aureus
Conditions in all cases: other: SaGloB, fluorogenic ester substrate; pH 7.5; 37.0 °C
[1] = substrate: CC(C)CCC(=O)OCOc1ccc2c(c1)Oc1cc(OCOC(=O)CCC(C)C)ccc1C21OC(=O)c2ccccc21
Procedure: (§1) Kinetic measurements were performed according to [White et al., 2018] with minor variation. Lyophilized human and mouse sera were resuspended according to manufacturer instructions in highly pure, filtered water at protein concentrations of 85 mg/mL and 70 mg/mL, respectively. One milliliter of resuspended serum was added to a 24 mL mastermix for a final concentration of 31.25 mM Tris pH 7.5, 312.5 mM NaCl, 1.25 mM MgCl2, 12.5% glycerol, and 3.4 mg/mL or 2.8 mg/mL protein for human and mouse serum, respectively. For purified proteins, 5 mL of a 75 µg/mL stock was added to yield a 20 mL mastermix containing 31.25 mM Tris pH 7.5, 312.5 mM NaCl, 1.25 mM MgCl2, 12.5% glycerol, and 18.75 µg/mL protein. Mastermix was stored on ice when not in use. Twenty microliters of mastermix was transferred to a black, 96-well half area microplate (Corning, CLS3993) and prewarmed at 37°C. Fluorogenic substrates were prepared as 10 mM stock solutions in 100% DMSO and were diluted in water to a starting concentration of 500 µM. Enzyme catalyzed substrate hydrolysis was initiated by addition of 5 µL substrate dilution in technical duplicate to the prewarmed serum or protein solution. Final assay concentrations were as follows: 25 mM Tris pH 7.5, 250 mM NaCl, 1 mM MgCl2, 10% glycerol, and protein at a concentration of 2.72 mg/mL (human serum), 2.24 mg/mL (mouse serum), or 15 µg/mL (FrmB, GloB). The resulting change in fluorescence (λex = 485 nm, λem = 520 nm) was followed for 15 min at 37°C, collecting data every 30 s on a FLUOstar Omega microplate reader (BMG Labtech). Fluorescence measurements were converted to molar concentrations using a fluorescein standard curve (2.5 nmol–0.6 pmol). The initial rates of reaction were measured three independent times with two technical replicates per measurement and fit to a line using GraphPad Prism (GraphPad Software, La Jolla, CA). Initial rates of reaction were plotted versus the concentration of substrate and fit to a standard Michaelis–Menten equation (v = Vmax[S]/(Km + [S])), yielding estimates of Vmax and Km. Values for kcat and kcat/Km were calculated based on amount of enzyme added when purified enzymes were used.

[2] = substrate: CC(C)OCC(=O)OCOc1ccc2c(c1)Oc1cc(OCOC(=O)COC(C)C)ccc1C21OC(=O)c2ccccc21
Procedure: as §1

[3] = substrate: CCC(OC)C(=O)OCOc1ccc2c(c1)Oc1cc(OCOC(=O)C(CC)OC)ccc1C21OC(=O)c2ccccc21
Procedure: as §1

[4] = substrate: CCCCC(=O)OCOc1ccc2c(c1)Oc1cc(OCOC(=O)CCCC)ccc1C21OC(=O)c2ccccc21
Procedure: as §1

[5] = substrate: CCOCCC(=O)OCOc1ccc2c(c1)Oc1cc(OCOC(=O)CCOCC)ccc1C21OC(=O)c2ccccc21
Procedure: as §1

[6] = substrate: COC(C)C(=O)OCOc1ccc2c(c1)Oc1cc(OCOC(=O)C(C)OC)ccc1C21OC(=O)c2ccccc21
Procedure: as §1

B1: SaGloB (Staphylococcus aureus subsp. aureus str. Newman) (protein)
chain: MRISSLTLGLVDTNTYFIENDKAVILIDPSGESEKIIKKLNQINKPLKAILLTHAHFDHIGAVDDIVDRFDVPVYMHEAEFDFLKDPVKNGADKFKQYGLPIITSKVTPEKLNEGSTEIEGFKFNVLHTPGHSPGSLTYVFDEFAVVGDTLFNNGIGRTDLYKGDYETLVDSIQDKIFELEGDLPLFPGHGPYTTVDDEQLNPFLHG
Km [1]: 48.00 µM | Vmax [1]: 0.444 pmol*min-1*μg protein-1 | kcat [1]: 0.0663 10-3 s-1 | kcat/Km [1]: 1.38 M⁻¹ s⁻¹ | Km [2]: 12.0 µM | Vmax [2]: 2.91 pmol*min-1*μg protein-1 | kcat [2]: 0.435 10-3 s-1 | kcat/Km [2]: 36.1 M⁻¹ s⁻¹ | Km [3]: 55.5 µM | Vmax [3]: 2.54 pmol*min-1*μg protein-1 | kcat [3]: 0.380 10-3 s-1 | kcat/Km [3]: 6.84 M⁻¹ s⁻¹ | Km [4]: 18.33 µM | Vmax [4]: 0.292 pmol*min-1*μg protein-1 | kcat [4]: 0.0436 10-3 s-1 | kcat/Km [4]: 2.38 M⁻¹ s⁻¹ | Km [5]: 21.2 µM | Vmax [5]: 0.731 pmol*min-1*μg protein-1 | kcat [5]: 0.109 10-3 s-1 | kcat/Km [5]: 5.15 M⁻¹ s⁻¹ | Km [6]: 20.5 µM | Vmax [6]: 23.1 pmol*min-1*μg protein-1 | kcat [6]: 3.45 10-3 s-1 | kcat/Km [6]: 168 M⁻¹ s⁻¹
